Source: publication PMC3062207

Experiments:
[1] = target: YU2gp140:gpD fusion protein (HIV-1 isolate YU2 | bacteriophage T4 | bacteriophage lambda); assay: SEC
[2] = target: YU2gp140 (cleavage-deficient, trimeric HIV-1 Env gp140 with T4 fibritin trimerization motif) (HIV-1 isolate YU2 | bacteriophage T4); assay: SEC

Substance	stoichiometry N [1]	stoichiometry N [2]
YU2gp140:gpD fusion protein	3	
YU2gp140 (cleavage-deficient, trimeric HIV-1 Env gp140 with T4 fibritin trimerization motif)		3
